Source: US20220098303A1 (GlaxoSmithKline, published 2022)

Target: cynomolgus PD-1 (cynomolgus)
Assay: kinetic analysis (bio-light interferometry)

B1: Pembrolizumab (antibody, V domains shown)
VH: QVQLVQSGVEVKKPGASVKVSCKASGYTFTNYYMYWVRQAPGQGLEWMGGINPSNGGTNFNEKFKNRVTLTTDSSTTTAYMELKSLQFDDTAVYYCARRDYRFDMGFDYWGQGTTVTVSS
VL: EIVLTQSPATLSLSPGERATLSCRASKGVSTSGYSYLHWYQQKPGQAPRLLIYLASYLESGVPARFSGSGSGTDFTLTISSLEPEDFAVYYCQHSRDLPLTFGGGTKVEIKR
notes: also called MK3475
For B1, which Kd is on record?
The Kd was 118 pM.
